What was measured:
[1] = target: METTL3 R471H;METTL14 WT (Homo sapiens;Homo sapiens, UniProt Q86U44;Q9HCE5 1-580;1-456, R471H|); experiment: SPR; two-state model; FP: 10 mM HEPES pH 7.5, 50 mM KCl, 5 nM RNA; SPR: 10 mM HEPES pH 7.5, 150 mM KCl, 0.05% P20, 25 C; 2-Ap: 50 mM Tris pH 8.0, 10 mM MgCl2, 0.5 uM RNA, read at 37; settings: protein: recombinant;recombinant, tags: His-tag removed by TEV;, copies: 1;1
[2] = target: METTL3 WT;METTL14 R298P (Homo sapiens;Homo sapiens, UniProt Q86U44;Q9HCE5 1-580;1-456, |R298P); experiment: as above; settings: protein: recombinant;recombinant, tags: His-tag removed by TEV;, copies: 1;1
Chain of METTL3 WT;METTL14 R298P (Q86U44 whole entry, chain 1 of 2): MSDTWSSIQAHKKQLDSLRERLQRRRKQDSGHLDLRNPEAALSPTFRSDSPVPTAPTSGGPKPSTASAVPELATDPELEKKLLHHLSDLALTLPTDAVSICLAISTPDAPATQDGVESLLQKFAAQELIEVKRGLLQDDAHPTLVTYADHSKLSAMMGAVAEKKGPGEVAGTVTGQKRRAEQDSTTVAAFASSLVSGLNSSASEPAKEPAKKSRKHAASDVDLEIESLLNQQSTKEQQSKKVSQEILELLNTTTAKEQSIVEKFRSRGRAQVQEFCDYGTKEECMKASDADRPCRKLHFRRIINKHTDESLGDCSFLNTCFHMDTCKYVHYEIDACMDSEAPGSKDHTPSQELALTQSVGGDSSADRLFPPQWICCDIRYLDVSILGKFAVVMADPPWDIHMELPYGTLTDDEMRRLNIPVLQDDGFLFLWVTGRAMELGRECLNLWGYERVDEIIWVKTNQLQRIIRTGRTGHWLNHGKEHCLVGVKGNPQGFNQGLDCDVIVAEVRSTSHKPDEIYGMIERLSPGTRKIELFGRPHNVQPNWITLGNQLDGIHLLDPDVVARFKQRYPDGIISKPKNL
Chain of METTL3 WT;METTL14 R298P (Q9HCE5 whole entry R298P, chain 2 of 2): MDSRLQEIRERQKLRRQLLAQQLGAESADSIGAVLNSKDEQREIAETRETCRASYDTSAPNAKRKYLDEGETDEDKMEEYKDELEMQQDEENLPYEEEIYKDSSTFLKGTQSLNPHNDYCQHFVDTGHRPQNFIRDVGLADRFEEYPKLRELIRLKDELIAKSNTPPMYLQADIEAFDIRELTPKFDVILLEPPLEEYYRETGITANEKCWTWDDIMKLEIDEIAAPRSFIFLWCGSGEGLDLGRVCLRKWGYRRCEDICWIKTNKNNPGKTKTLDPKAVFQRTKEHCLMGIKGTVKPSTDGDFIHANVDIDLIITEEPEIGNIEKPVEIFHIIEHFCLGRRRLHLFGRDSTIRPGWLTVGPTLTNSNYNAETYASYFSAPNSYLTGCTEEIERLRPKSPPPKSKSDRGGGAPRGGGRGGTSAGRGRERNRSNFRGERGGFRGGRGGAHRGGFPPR

[3] = target: T1, METTL3 WT;METTL14 WT (Homo sapiens;Homo sapiens, UniProt Q86U44;Q9HCE5 1-580;1-456, |); experiment: SPR; 1:1 model; FP: 10 mM HEPES pH 7.5, 50 mM KCl, 5 nM RNA; SPR: 10 mM HEPES pH 7.5, 150 mM KCl, 0.05% P20, 25 C; 2-Ap: 50 mM Tris pH 8.0, 10 mM MgCl2, 0.5 uM RNA, read at 37; settings: protein: recombinant;recombinant, tags: His-tag removed by TEV;, copies: 1;1
T1 sequence (Q86U44 whole entry, chain 1 of 2): as the sequence (Q86U44 whole entry, chain 1 of 2) above
T1 sequence (Q9HCE5 whole entry, chain 2 of 2): as the sequence (Q9HCE5 whole entry R298P, chain 2 of 2) above, with P298R counted along it

[4] = target: T1, METTL3 WT;METTL14 WT; experiment: fluorescence polarization; range given for A-RNA and m6A-RNA together; m6A-RNA said to bind more tightly; FP: 10 mM HEPES pH 7.5, 50 mM KCl, 5 nM RNA; SPR: 10 mM HEPES pH 7.5, 150 mM KCl, 0.05% P20, 25 C; 2-Ap: 50 mM Tris pH 8.0, 10 mM MgCl2, 0.5 uM RNA, read at 37; settings: protein: recombinant;recombinant; tags: His-tag removed by TEV;; copies: 1;1; label: 5' fluorescein; predicted bulged stem-loop
[5] = target: T1, METTL3 WT;METTL14 WT; experiment: fluorescence polarization; range given for A-RNA and m6A-RNA together; FP: 10 mM HEPES pH 7.5, 50 mM KCl, 5 nM RNA; SPR: 10 mM HEPES pH 7.5, 150 mM KCl, 0.05% P20, 25 C; 2-Ap: 50 mM Tris pH 8.0, 10 mM MgCl2, 0.5 uM RNA, read at 37; settings: protein: recombinant;recombinant; tags: His-tag removed by TEV;; copies: 1;1; label: 5' fluorescein; predicted bulged stem-loop

Chain of METTL3 R471H;METTL14 WT (Q86U44 whole entry R471H, chain 1 of 2): as the sequence (Q86U44 whole entry, chain 1 of 2) above, with R471H counted along it
Chain of METTL3 R471H;METTL14 WT (Q9HCE5 whole entry, chain 2 of 2): as the sequence (Q9HCE5 whole entry R298P, chain 2 of 2) above, with P298R counted along it

| Binder | Kd ([1]; linear single strand) | Kd ([2]; linear single strand) | Kd ([3]; linear single strand) | Kd ([1]; bulged stem-loop) | Kd ([2]; bulged stem-loop) | Kd ([3]; bulged stem-loop) | further results |
| --- | --- | --- | --- | --- | --- | --- | --- |
| CUUCGGACUCUGCU (ssRNA, m6A at position 7) [r6T-m6A (biotinyl)] | 171 nM | 22900 nM | 3120 nM | – | – | – | – |
| CUUCGGACUCUGCU (ssRNA) [r6T (biotinyl)] | 108 nM | 2160 nM | 1360 nM | – | – | – | – |
| GCCUAGUAGCAGAGAGGACUGCUCCUUGGU (structured_RNA, m6A at position 18) [rNEAT2-m6A (biotinyl)] | – | – | – | 62.8 nM | 538 nM | 337 nM | – |
| GCCUAGUAGCAGAGAGGACUGCUCCUUGGU (structured_RNA) [rNEAT2 (biotinyl)] | – | – | – | 58.8 nM | 356 nM | 256 nM | – |
| GCCUAGUAGCAGAGAGGACUGCUCCUUGGU (structured_RNA, m6A at position 18) [Fl-NEAT2*-m6A (m6A-RNA)] | – | – | – | – | – | – | Kd [4]: ~13.4 nM |
| GCCUAGUAGCAGAGAGGACUGCUCCUUGGU (structured_RNA) [Fl-NEAT2* (A-RNA)] | – | – | – | – | – | – | Kd [5]: ~13.4 nM |
